How the values were obtained:
Test in all cases: high-speed cosedimentation
[1] = target: platelet actin (85% β-actin, 15% γ-actin) (Homo sapiens, UniProt P60709)
γ-actin = γ-actin (Mus musculus, UniProt P63260)
α-skeletal F-actin = α-skeletal F-actin (Oryctolagus cuniculus, UniProt P68135)

Kd [1] [µM] | Kd (γ-actin) [µM] | Kd (α-skeletal F-actin) [µM] | Binder
4.15 | 6.17 |  | fascin-2 (protein) MPTNGLHQVLKIQFGLVNDADRYLTAESFGFKVNASAASLKRKQIWVLEPDPGQGTAVLFRSSHLGRYLSAEEDGRVACEMDQPGRDCRFLVLPQPDGRWVLQSEPHGRFFGGIEDRLSCFATAISPAELWTVHLAIHPQAHLLSVSRRRYVHLCLQEDEMAADGDMPWGVDALVTLIFQSRRYCLKSYDSRYLRSDGRLVWEPEAHACYTLEFKAGKLAFKDCDGRYLAPVGPAGTLKAGRNTRPSKDELFDLEQSHPQVVLVAANRRYISVRQGINVSANQDEELGHETFLMQIDQETKKCTFYSSTGGYWTLVTHGGIQATATQVSANTMFEIEWHGRRVALKASNGRFVCMKKNGQLAAISDFVGEDELFTLKLINRPLLVLRGLDGFVCHRRGSNQLDTNRSTYDVFHLSFRDGAYQIRGRGGGFWYTGSHGSVCSDGDLAEDFLFEFRERGRLAIRALSGKYLRGGASGLLRADADLPVGEALWEY
 |  | 5.97 | fascin-2 p.R109H (protein) MPTNGLHQVLKIQFGLVNDADRYLTAESFGFKVNASAASLKRKQIWVLEPDPGQGTAVLFRSSHLGRYLSAEEDGRVACEMDQPGRDCRFLVLPQPDGRWVLQSEPHGHFFGGIEDRLSCFATAISPAELWTVHLAIHPQAHLLSVSRRRYVHLCLQEDEMAADGDMPWGVDALVTLIFQSRRYCLKSYDSRYLRSDGRLVWEPEAHACYTLEFKAGKLAFKDCDGRYLAPVGPAGTLKAGRNTRPSKDELFDLEQSHPQVVLVAANRRYISVRQGINVSANQDEELGHETFLMQIDQETKKCTFYSSTGGYWTLVTHGGIQATATQVSANTMFEIEWHGRRVALKASNGRFVCMKKNGQLAAISDFVGEDELFTLKLINRPLLVLRGLDGFVCHRRGSNQLDTNRSTYDVFHLSFRDGAYQIRGRGGGFWYTGSHGSVCSDGDLAEDFLFEFRERGRLAIRALSGKYLRGGASGLLRADADLPVGEALWEY
 |  | 4.95 | fascin-2 (protein, N-terminal flag tag, phalloidin-stabilized F-actin) MPTNGLHQVLKIQFGLVNDADRYLTAESFGFKVNASAASLKRKQIWVLEPDPGQGTAVLFRSSHLGRYLSAEEDGRVACEMDQPGRDCRFLVLPQPDGRWVLQSEPHGRFFGGIEDRLSCFATAISPAELWTVHLAIHPQAHLLSVSRRRYVHLCLQEDEMAADGDMPWGVDALVTLIFQSRRYCLKSYDSRYLRSDGRLVWEPEAHACYTLEFKAGKLAFKDCDGRYLAPVGPAGTLKAGRNTRPSKDELFDLEQSHPQVVLVAANRRYISVRQGINVSANQDEELGHETFLMQIDQETKKCTFYSSTGGYWTLVTHGGIQATATQVSANTMFEIEWHGRRVALKASNGRFVCMKKNGQLAAISDFVGEDELFTLKLINRPLLVLRGLDGFVCHRRGSNQLDTNRSTYDVFHLSFRDGAYQIRGRGGGFWYTGSHGSVCSDGDLAEDFLFEFRERGRLAIRALSGKYLRGGASGLLRADADLPVGEALWEY
3.91 |  |  | fascin-2 S39A (protein) MPTNGLHQVLKIQFGLVNDADRYLTAESFGFKVNASAAALKRKQIWVLEPDPGQGTAVLFRSSHLGRYLSAEEDGRVACEMDQPGRDCRFLVLPQPDGRWVLQSEPHGRFFGGIEDRLSCFATAISPAELWTVHLAIHPQAHLLSVSRRRYVHLCLQEDEMAADGDMPWGVDALVTLIFQSRRYCLKSYDSRYLRSDGRLVWEPEAHACYTLEFKAGKLAFKDCDGRYLAPVGPAGTLKAGRNTRPSKDELFDLEQSHPQVVLVAANRRYISVRQGINVSANQDEELGHETFLMQIDQETKKCTFYSSTGGYWTLVTHGGIQATATQVSANTMFEIEWHGRRVALKASNGRFVCMKKNGQLAAISDFVGEDELFTLKLINRPLLVLRGLDGFVCHRRGSNQLDTNRSTYDVFHLSFRDGAYQIRGRGGGFWYTGSHGSVCSDGDLAEDFLFEFRERGRLAIRALSGKYLRGGASGLLRADADLPVGEALWEY
